Two molecules from publication PMC5042384, “Sequence-Dependent T:G Base Pair Opening in DNA Double Helix Bound by Cren7, a Chromatin Protein Conserved among Crenarchaea” can be followed below.

For series [1], the target named is T1, Cren7 (UniProt Q97ZE3 1-60).
T1 sequence: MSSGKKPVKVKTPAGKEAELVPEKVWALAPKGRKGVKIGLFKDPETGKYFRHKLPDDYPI
The experiment in a line: X-ray crystallography; 2.0 A; T2:G15 open; SPR (BIAcore 3000): 50 mM Tris-Cl pH 7.5, 100 mM NaCl, 1 mM EDTA, 0.005% Tween 20, 25 C, 1:1 Langmuir global fit; crystals: protein:DNA 1:1.5, 30% PEG1500, 20 C. The settings on record: protein: recombinant; blunt; self-annealed octamer, 2 strand copies, T:G mispairs T2:G15 and G7:T10.

Series [2] has as its target T1, Cren7. The experiment in a line: X-ray crystallography; 2.1 A; both T:G wobble; SPR (BIAcore 3000): 50 mM Tris-Cl pH 7.5, 100 mM NaCl, 1 mM EDTA, 0.005% Tween 20, 25 C, 1:1 Langmuir global fit; crystals: protein:DNA 1:1.5, 30% PEG1500, 20 C. The conditions noted are these: protein: recombinant; blunt; self-annealed octamer, 2 strand copies, T:G mispairs T2:G15 and G7:T10.

B1: d(GTAATTGC)2 (dsDNA)
DNA 1: GTAATTGC
DNA 2: GTAATTGC
Take B1: the binding result in series [1] is given as “binds”.

B2: d(GTGATCGC)2 (dsDNA)
DNA 1: GTGATCGC
DNA 2: GTGATCGC
In the case of B2, the binding result in series [2] is “binds”.
